The values that follow come from PMC4072508, “Genome-Wide Prediction and Validation of Peptides That Bind Human Prosurvival Bcl-2 Proteins” (PLoS Computational Biology, 2014).

One experiment deals with Bcl-xL, Q07817. Nature of the experiment: peptide SPOT array, c-Myc-tagged receptor at 1 uM or 100 nM, anti-c-Myc-Cy3.
The target of another experiment is T1, Mcl-1, Q07820.
T1 chain: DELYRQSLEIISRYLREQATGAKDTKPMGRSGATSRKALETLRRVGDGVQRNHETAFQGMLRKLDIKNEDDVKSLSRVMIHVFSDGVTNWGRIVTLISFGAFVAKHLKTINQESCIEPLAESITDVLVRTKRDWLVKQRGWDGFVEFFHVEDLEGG
The description is as above.

Bcl-xL, Q07817, sequence (Q07817 1-209): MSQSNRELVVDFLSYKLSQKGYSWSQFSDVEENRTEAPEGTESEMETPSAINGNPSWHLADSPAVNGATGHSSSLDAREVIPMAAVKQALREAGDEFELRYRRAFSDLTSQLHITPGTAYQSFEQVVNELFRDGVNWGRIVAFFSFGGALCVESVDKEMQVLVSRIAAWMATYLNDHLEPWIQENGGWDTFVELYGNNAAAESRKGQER

With RLAHEHHCLRIKILGDCYYCVSGLPE [ADCY8], the SPOT signal as a fraction of Bim BH3's signal on the same receptor and array with Bcl-xL, Q07817 turned out to be 0.03; with Mcl-1, Q07820, 0.02.

Turning to GLTWDPVGKYIASQLDDRSLKVWRTL [HIRA], the SPOT signal as a fraction of Bim BH3's signal on the same receptor and array with Bcl-xL, Q07817 was determined as 0.86; with Mcl-1, Q07820, 0.55.

As to RIEMWISILEDNELGEYAAVELHQAK [KIF13A], the SPOT signal as a fraction of Bim BH3's signal on the same receptor and array was determined as 0.03 in the experiment with Bcl-xL, Q07817 and 0.02 with Mcl-1, Q07820.

For the molecule IQQDLGCGASLGVILDNLLVTGGQGC, the SPOT signal as a fraction of Bim BH3's signal on the same receptor and array in the experiment with Bcl-xL, Q07817 was 0.01; in the experiment with Mcl-1, Q07820, 0.01.

Turning to ITVVGDVGGRIAIIVDDIIDDVESFV [PRPSAP1], the SPOT signal as a fraction of Bim BH3's signal on the same receptor and array with Bcl-xL, Q07817 was determined as 0.02; in the experiment with Mcl-1, Q07820, 0.02.

Turning to IQQDLGCGASDGVISDNLLVTGGQGC, the SPOT signal as a fraction of Bim BH3's signal on the same receptor and array with Bcl-xL, Q07817 came out at 0.01; with Mcl-1, Q07820, 0.01.

On to LGLGELAGLTDANEADSLTYDIANNK [STRN], for which the SPOT signal as a fraction of Bim BH3's signal on the same receptor and array in the experiment with Bcl-xL, Q07817 was 0.01; with Mcl-1, Q07820, 0.01.

SQGDKRVAFFMRKGLDCLSKWVGESE [ATAD2]: the SPOT signal as a fraction of Bim BH3's signal on the same receptor and array with Bcl-xL, Q07817 is 0.06; with Mcl-1, Q07820, 0.03.

In the case of LRCEMASTGEVACFLEGIHTAFLKAM [CPS1], the SPOT signal as a fraction of Bim BH3's signal on the same receptor and array with Bcl-xL, Q07817 turned out to be 0.02; with Mcl-1, Q07820, 0.03.

For VEQFSEASQQDAELSEVLVLRLENYE, the SPOT signal as a fraction of Bim BH3's signal on the same receptor and array with Bcl-xL, Q07817 turned out to be 0.02; in the experiment with Mcl-1, Q07820, 0.02.

IVGGCVVGIAMARFADFIRGMLKLIL: the SPOT signal as a fraction of Bim BH3's signal on the same receptor and array in the experiment with Bcl-xL, Q07817 came out at 0.25; in the experiment with Mcl-1, Q07820, 0.18.

With SKFVILSAHKLVFILDTLTRQVTAQD [NEDD9], the SPOT signal as a fraction of Bim BH3's signal on the same receptor and array with Bcl-xL, Q07817 was determined as 0.06; with Mcl-1, Q07820 it was 0.04.

For the molecule GKPETCTGQDDADLGDRLRDWFQLLH [SPOCK2], the SPOT signal as a fraction of Bim BH3's signal on the same receptor and array with Bcl-xL, Q07817 is 0.01; with Mcl-1, Q07820, 0.01.

On to AKFLLYLGHSLSTWLDRMWHFAVSVF [SLC40A1], for which the SPOT signal as a fraction of Bim BH3's signal on the same receptor and array with Bcl-xL, Q07817 was found to be 0.12; with Mcl-1, Q07820 it was 0.07.

As to ALKKADVGFAMGIALTDVAKEASDII [ATP2B1], the SPOT signal as a fraction of Bim BH3's signal on the same receptor and array in the experiment with Bcl-xL, Q07817 worked out at 0.02; with Mcl-1, Q07820, 0.01.

For the molecule VILADPDGHEICFVLDEAFRELSKMD [GLOD4], the SPOT signal as a fraction of Bim BH3's signal on the same receptor and array is 0.02 in the experiment with Bcl-xL, Q07817 and 0.02 with Mcl-1, Q07820.

As for DLLGMVVVDEDHMLGDSHRGYLLELL [POLQ], the SPOT signal as a fraction of Bim BH3's signal on the same receptor and array turned out to be 0.02 with Bcl-xL, Q07817 and 0.02 with Mcl-1, Q07820.

In the case of CGDLASLSIDDWTLGEEVDGRRLVVA [BIRC6], the SPOT signal as a fraction of Bim BH3's signal on the same receptor and array came to 0.02 with Bcl-xL, Q07817 and 0.02 with Mcl-1, Q07820.

With AVLCVECGYKYRFFGEDAEIAARELN [MSH3], the SPOT signal as a fraction of Bim BH3's signal on the same receptor and array in the experiment with Bcl-xL, Q07817 stood at 0.01; in the experiment with Mcl-1, Q07820, 0.01.

As to SVRYYPSGDAFASGLDDATCRLYDLR [GNB5], the SPOT signal as a fraction of Bim BH3's signal on the same receptor and array came out at 0.02 with Bcl-xL, Q07817 and 0.02 with Mcl-1, Q07820.

In the case of GLFSATSGVDLKYVLDTFGQEVRPVS [DDX7], the SPOT signal as a fraction of Bim BH3's signal on the same receptor and array was 0.02 in the experiment with Bcl-xL, Q07817 and 0.02 in the experiment with Mcl-1, Q07820.

For PPDAHVLGKALEAALQDFSLDLRSTG [CIITA], the SPOT signal as a fraction of Bim BH3's signal on the same receptor and array with Bcl-xL, Q07817 stood at 0.01; in the experiment with Mcl-1, Q07820 it was 0.02.

For VEQFSEASQQMAELLEVLVLRLENYE, the SPOT signal as a fraction of Bim BH3's signal on the same receptor and array came to 0.02 with Bcl-xL, Q07817 and 0.02 with Mcl-1, Q07820.

In the case of SALETQVAAAVQALLDDYLAQLSLEP, the SPOT signal as a fraction of Bim BH3's signal on the same receptor and array was 0.02 with Bcl-xL, Q07817 and 0.02 in the experiment with Mcl-1, Q07820.

For SAGVPVRGVELQAALERFARCFGRTD [TIGD7], the SPOT signal as a fraction of Bim BH3's signal on the same receptor and array in the experiment with Bcl-xL, Q07817 amounted to 0.04; with Mcl-1, Q07820, 0.05.

As to KNIAGALAFWMANALELLNFIKQDRD [MLLT4], the SPOT signal as a fraction of Bim BH3's signal on the same receptor and array in the experiment with Bcl-xL, Q07817 was 0.03; with Mcl-1, Q07820, 0.02.

RHFVIRRGQVDREIAEEYGGVMVSFP [HDLBP]: the SPOT signal as a fraction of Bim BH3's signal on the same receptor and array with Bcl-xL, Q07817 is 0.02; in the experiment with Mcl-1, Q07820, 0.03.

Take SALETQVAAADQALADDYLAQLSLEP: the SPOT signal as a fraction of Bim BH3's signal on the same receptor and array with Bcl-xL, Q07817 came out at 0.01; with Mcl-1, Q07820 it was 0.01.

On to AFTEREASEIDKSIGEAIQYLHSINI [MAPKAPK2], for which the SPOT signal as a fraction of Bim BH3's signal on the same receptor and array with Bcl-xL, Q07817 turned out to be 0.02; in the experiment with Mcl-1, Q07820 it was 0.02.

With QLSKPGAALYLQSIGEGFKEAVQYVL [SOS1], the SPOT signal as a fraction of Bim BH3's signal on the same receptor and array with Bcl-xL, Q07817 turned out to be 0.02; in the experiment with Mcl-1, Q07820 it was 0.02.

Consider PSLSKELTSSLAGVLDVSFDSDSQFP [CRTC1], for which the SPOT signal as a fraction of Bim BH3's signal on the same receptor and array with Bcl-xL, Q07817 amounted to 0.02; with Mcl-1, Q07820, 0.01.

For the molecule FRFAQLCGLHIVIHADELEELMCYYQ [CLTCL1], the SPOT signal as a fraction of Bim BH3's signal on the same receptor and array in the experiment with Bcl-xL, Q07817 came out at 0.02; with Mcl-1, Q07820, 0.02.

In the case of IVGGCVVGIADARFADFIRGMLKLIL, the SPOT signal as a fraction of Bim BH3's signal on the same receptor and array was determined as 0.15 with Bcl-xL, Q07817 and 0.14 in the experiment with Mcl-1, Q07820.

AALFLHAGCQDLTAGEDGKVQVWSGS [TEP1]: the SPOT signal as a fraction of Bim BH3's signal on the same receptor and array was determined as 0.02 with Bcl-xL, Q07817 and 0.02 with Mcl-1, Q07820.

For VFDDLRGSVSLSWVLDSTGVILVLTT [SORT1], the SPOT signal as a fraction of Bim BH3's signal on the same receptor and array in the experiment with Bcl-xL, Q07817 came out at 0.01; in the experiment with Mcl-1, Q07820 it was 0.02.

ISDVQVFGYSDRFNADLLRSAVQQVN [DBC1]: the SPOT signal as a fraction of Bim BH3's signal on the same receptor and array with Bcl-xL, Q07817 amounted to 0.02; in the experiment with Mcl-1, Q07820, 0.02.

As to SHALICISHWDLGIGDRHLNNFMVAM [PRKDC], the SPOT signal as a fraction of Bim BH3's signal on the same receptor and array with Bcl-xL, Q07817 was 0.02; with Mcl-1, Q07820, 0.02.
